In PMC6985287, “Novel Immunomodulatory Proteins Generated via Directed Evolution of Variant IgSF Domains” (Frontiers in Immunology, 2019):

Molecular target: T1, wild type human ICOSL-Fc fusion protein (human, UniProt O75144 19-256)
T1 construct: ICOS ligand (ICOSL), human, extracellular domain (ECD); secreted with the human immunoglobulin VH5-51 signal peptide; Fc dimer; also called WT ICOSL; WT ICOSL-Fc; source: Expi293F, transient expression, purified (Protein A, SEC); not shown: Fc (IgG1, lacking effector function), C-terminal, kept
T1 sequence (looked up): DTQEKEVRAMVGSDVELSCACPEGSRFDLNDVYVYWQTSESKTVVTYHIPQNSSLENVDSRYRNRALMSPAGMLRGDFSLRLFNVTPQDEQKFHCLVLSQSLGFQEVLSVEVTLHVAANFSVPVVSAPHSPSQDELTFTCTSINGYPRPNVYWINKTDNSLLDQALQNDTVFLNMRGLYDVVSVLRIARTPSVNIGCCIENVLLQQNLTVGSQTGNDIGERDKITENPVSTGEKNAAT
Assay: BLI; ForteBio Octet QKe; receptor-Fc loaded on the sensor (Protein A sensors in the methods, anti-human capture AHC sensors in the table's footnote); ICOSL-Fc proteins in four-point titrations (100, 50, 25, 12.5 nM); global 1:1 fit; both partners Fc dimers, KD includes avidity
Settings: both partners purified

Kd: 0.883 nM
B1: human recombinant ICOS-Fc fusion protein (Fc fusion, UniProt Q9Y6W8 21-140, looked up)
chain: EINGSANYEMFIFHNGGVQILCKYPDIVQQFKMQLLKGGQILCDLTKTKGSGNTVSIKSLKFCHSQLSNNSVSFFLYNLDHSHANYYFCNLSIFDPPPFKVTLTGGYLHIYESQLCCQLK
notes: Inducible Costimulator (ICOS), human, soluble Fc fusion; also called soluble ICOS-Fc; source: bought: R&D Systems
